Measurements published in publication PMC4084830 (Nature structural & molecular biology, 2013).

Key:
[1] = target: recombinant mouse glucokinase (GK) isoform 1 (mouse) (UniProt P52792)
glucokinase (GK) = target: T1, glucokinase (GK) (Mus musculus, UniProt P52792); experiment: Steady-state kinetics of recombinant wild-type mouse glucokinase; type: biochemical; details: vs vehicle
T1 sequence (P52792 1-465): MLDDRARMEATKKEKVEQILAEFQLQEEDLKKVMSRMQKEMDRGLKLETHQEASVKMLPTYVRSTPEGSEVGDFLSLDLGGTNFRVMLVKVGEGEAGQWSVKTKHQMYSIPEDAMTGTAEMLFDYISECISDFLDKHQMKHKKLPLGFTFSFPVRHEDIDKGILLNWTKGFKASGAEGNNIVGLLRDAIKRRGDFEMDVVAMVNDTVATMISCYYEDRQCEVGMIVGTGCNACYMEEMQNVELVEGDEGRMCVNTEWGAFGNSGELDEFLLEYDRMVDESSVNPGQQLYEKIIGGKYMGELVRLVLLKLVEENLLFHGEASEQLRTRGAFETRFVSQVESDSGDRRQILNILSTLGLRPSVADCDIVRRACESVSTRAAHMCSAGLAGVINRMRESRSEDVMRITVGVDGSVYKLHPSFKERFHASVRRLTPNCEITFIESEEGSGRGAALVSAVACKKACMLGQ

| GK Vmax (% of vehicle), G6PDH-coupled assay with 5 μM SAHB and 7.5 nM GK, 37 °C [1] | increase in Vmax (glucokinase (GK); 5 μM BAD SAHB or 3 μM RO0281675) | Compound | effect on GK kinetic profile (in words) (glucokinase (GK); 5 μM BAD SAHBs and/or 3 μM RO0281675) |
| --- | --- | --- | --- |
| 129 % veh. |  | BAD SAHBA (S118pS) (peptide) |  |
|  | approximately 40% | CS(=O)(=O)c1ccc([C@@H](CC2CCCC2)C(=O)Nc2nccs2)cc1 [RO0281675] | no significant effect on the Hill coefficient |
| 89.6 % veh. |  | BAD SAHBA (S118L) (peptide) |  |
| 144 % veh. |  | BAD SAHBA (S118D) (peptide) |  |
